In patent US20250388702A1 (Dana-Farber, published 2025):

Columns and labels:
Human KIR3DL3 [1] = biological target: T1, Human KIR3DL3 (human, UniProt Q8N743 26-410); experiment: cell-based or functional assay
KIR3DL1 = biological target: T2, KIR3DL1 (UniProt P43629 22-444, limits assumed); experiment: HEK293 cell microarray
T2 construct: whole, on cells
Description: (§1) Replicate microarray slides expressing a complete KIR family cDNA panel were fixed and blocked with buffer containing PBS/0.5% BSA and incubated for 1 hour at room temperature with individual KIR3DL3 mAb hybridoma supernatants at 1:5, 1:25 and 1:250 dilutions in PBS/0.1% BSA. Cell arrays were washed with PBS and incubated for 1 hour at room temperature in PBS/0.1% BSA containing AF647-conjugated goat anti-mouse IgG (H+L) (Life Technologies, A21235). Slides were washed with PBS, dried, and imaged for ZsGreen1 and AF647 fluorescence.
(§2) In Table 4, replicate microarray slides expressing the KIR family cDNA panel (as in FIG. 1A, FIG. 2B, and FIG. 2C) were fixed and blocked with buffer containing PBS/0.5% BSA and incubated for 1 hour at room temperature with individual KIR3DL3 mAb hybridoma supernatants at 1:5, 1:25 and 1:250 dilutions in PBS/0.1% BSA. Cell arrays were washed with PBS and incubated for 1 hour at room temperature in PBS/0.1% BSA containing AF647-conjugated goat anti-mouse IgG (H+L) (Life Technologies, A21235). Slides were washed with PBS, dried, and imaged for ZsGreen1 and AF647 fluorescence.

KIR3DL2 = biological target: T3, KIR3DL2 (UniProt P43630 22-455, limits assumed); experiment: HEK293 cell microarray
T3 construct: whole, on cells
T3 sequence (P43630 22-455 limits assumed): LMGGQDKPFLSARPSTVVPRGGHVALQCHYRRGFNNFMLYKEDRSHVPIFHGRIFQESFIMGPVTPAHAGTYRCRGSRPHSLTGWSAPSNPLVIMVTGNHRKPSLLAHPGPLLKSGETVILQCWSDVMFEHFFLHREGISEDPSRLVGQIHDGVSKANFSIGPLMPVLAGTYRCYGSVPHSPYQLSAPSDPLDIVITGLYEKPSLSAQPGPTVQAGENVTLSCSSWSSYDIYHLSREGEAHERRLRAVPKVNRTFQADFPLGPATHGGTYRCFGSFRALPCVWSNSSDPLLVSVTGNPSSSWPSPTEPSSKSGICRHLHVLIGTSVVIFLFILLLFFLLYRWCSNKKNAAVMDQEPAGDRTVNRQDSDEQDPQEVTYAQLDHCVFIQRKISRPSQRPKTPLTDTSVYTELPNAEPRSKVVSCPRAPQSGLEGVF
Description: as §1, §2

KIR2DL1 = biological target: T4, KIR2DL1 (UniProt P43626 22-348, limits assumed); experiment: HEK293 cell microarray
T4 construct: whole, on cells
T4 sequence (P43626 22-348 limits assumed): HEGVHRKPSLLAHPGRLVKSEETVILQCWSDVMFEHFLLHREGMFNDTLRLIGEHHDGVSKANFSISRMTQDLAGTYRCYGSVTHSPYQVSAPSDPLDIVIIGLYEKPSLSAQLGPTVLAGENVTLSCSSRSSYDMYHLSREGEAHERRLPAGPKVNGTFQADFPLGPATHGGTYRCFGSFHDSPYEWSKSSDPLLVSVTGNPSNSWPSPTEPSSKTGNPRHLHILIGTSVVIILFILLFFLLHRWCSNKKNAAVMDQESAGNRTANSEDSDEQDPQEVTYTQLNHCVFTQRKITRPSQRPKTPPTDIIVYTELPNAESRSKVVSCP
Description: as §1, §2

KIR2DL2 = biological target: T5, KIR2DL2 (UniProt P43627 22-348, limits assumed); experiment: HEK293 cell microarray
T5 construct: whole, on cells
T5 sequence (P43627 22-348 limits assumed): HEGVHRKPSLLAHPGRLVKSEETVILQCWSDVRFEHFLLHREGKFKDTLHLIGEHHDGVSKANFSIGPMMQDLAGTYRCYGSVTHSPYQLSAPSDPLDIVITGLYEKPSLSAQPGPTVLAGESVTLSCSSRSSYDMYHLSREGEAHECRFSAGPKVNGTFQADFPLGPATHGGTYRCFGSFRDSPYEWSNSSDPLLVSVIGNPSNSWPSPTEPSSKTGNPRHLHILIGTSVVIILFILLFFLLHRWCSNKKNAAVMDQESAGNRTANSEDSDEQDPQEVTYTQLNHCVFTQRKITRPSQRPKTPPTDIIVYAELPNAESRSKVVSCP
Description: as §1, §2

KIR2DL3 = biological target: T6, KIR2DL3 (UniProt P43628 22-341, limits assumed); experiment: HEK293 cell microarray
T6 construct: whole, on cells
T6 sequence (P43628 22-341 limits assumed): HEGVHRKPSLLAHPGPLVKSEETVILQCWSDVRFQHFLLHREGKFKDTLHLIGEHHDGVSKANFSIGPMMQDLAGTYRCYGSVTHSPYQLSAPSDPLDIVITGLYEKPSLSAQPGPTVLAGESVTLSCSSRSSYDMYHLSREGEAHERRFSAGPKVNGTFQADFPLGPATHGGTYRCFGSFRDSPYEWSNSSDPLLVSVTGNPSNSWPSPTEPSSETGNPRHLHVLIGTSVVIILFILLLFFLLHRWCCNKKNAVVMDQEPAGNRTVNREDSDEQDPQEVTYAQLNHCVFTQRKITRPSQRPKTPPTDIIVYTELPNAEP
Description: as §1, §2

KIR2DL4 = biological target: T7, KIR2DL4 (UniProt Q99706 22-377, limits assumed); experiment: HEK293 cell microarray
T7 construct: whole, on cells
T7 sequence (Q99706 22-377 limits assumed): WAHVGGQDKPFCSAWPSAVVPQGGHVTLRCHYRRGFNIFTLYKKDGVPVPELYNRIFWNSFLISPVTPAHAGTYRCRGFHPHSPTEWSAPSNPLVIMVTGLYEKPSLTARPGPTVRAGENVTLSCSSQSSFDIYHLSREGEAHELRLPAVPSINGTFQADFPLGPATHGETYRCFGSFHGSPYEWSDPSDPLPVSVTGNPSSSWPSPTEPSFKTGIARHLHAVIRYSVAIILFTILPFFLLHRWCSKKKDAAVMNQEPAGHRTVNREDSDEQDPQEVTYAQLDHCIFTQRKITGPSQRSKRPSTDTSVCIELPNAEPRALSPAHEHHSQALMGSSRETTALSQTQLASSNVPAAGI
Description: as §1, §2

KIR2DL5A = biological target: T8, KIR2DL5A (UniProt Q8N109 22-375, limits assumed); experiment: HEK293 cell microarray
T8 construct: whole, on cells
T8 sequence (Q8N109 22-375 limits assumed): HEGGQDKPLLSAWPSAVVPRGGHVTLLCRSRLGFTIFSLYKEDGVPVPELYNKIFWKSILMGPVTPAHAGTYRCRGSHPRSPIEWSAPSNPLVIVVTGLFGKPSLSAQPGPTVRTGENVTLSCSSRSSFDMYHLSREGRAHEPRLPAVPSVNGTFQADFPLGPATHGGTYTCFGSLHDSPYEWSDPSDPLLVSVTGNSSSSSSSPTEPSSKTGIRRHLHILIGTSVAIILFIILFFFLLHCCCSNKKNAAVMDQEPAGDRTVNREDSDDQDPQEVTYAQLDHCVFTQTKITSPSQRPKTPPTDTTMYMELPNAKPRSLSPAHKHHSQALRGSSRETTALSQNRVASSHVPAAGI
Description: as §1, §2

KIR2DL5B = biological target: T9, KIR2DL5B (UniProt Q8NHK3 22-375, limits assumed); experiment: HEK293 cell microarray
T9 construct: whole, on cells
T9 sequence (Q8NHK3 22-375 limits assumed): as the sequence (Q8N109 22-375 limits assumed) above, with N152D, G174S counted along it
Description: as §1, §2

KIR2DS1 = biological target: T10, KIR2DS1 (UniProt Q14954 22-304, limits assumed); experiment: HEK293 cell microarray
T10 construct: whole, on cells
T10 sequence (Q14954 22-304 limits assumed): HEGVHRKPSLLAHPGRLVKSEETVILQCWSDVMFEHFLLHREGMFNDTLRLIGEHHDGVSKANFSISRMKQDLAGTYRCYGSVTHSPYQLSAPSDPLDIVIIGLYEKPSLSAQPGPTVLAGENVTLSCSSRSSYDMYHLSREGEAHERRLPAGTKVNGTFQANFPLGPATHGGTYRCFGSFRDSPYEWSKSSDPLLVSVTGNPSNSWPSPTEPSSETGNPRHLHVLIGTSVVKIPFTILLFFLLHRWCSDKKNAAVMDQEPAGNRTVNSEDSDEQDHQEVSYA
Description: as §1, §2

KIR2DS2 = biological target: T11, KIR2DS2 (UniProt P43631 22-304, limits assumed); experiment: HEK293 cell microarray
T11 construct: whole, on cells
T11 sequence (P43631 22-304 limits assumed): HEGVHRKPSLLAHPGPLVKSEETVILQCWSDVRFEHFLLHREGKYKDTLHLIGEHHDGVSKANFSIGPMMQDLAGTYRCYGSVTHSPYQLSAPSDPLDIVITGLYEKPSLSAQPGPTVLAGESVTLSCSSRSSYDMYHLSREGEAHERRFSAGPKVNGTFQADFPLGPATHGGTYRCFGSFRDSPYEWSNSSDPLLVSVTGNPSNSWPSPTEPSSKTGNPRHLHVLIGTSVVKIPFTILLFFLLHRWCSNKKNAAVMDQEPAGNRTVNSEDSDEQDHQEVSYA
Description: as §1, §2

KIR2DS3 = biological target: T12, KIR2DS3 (UniProt Q14952 22-304, limits assumed); experiment: HEK293 cell microarray
T12 construct: whole, on cells
T12 sequence (Q14952 22-304 limits assumed): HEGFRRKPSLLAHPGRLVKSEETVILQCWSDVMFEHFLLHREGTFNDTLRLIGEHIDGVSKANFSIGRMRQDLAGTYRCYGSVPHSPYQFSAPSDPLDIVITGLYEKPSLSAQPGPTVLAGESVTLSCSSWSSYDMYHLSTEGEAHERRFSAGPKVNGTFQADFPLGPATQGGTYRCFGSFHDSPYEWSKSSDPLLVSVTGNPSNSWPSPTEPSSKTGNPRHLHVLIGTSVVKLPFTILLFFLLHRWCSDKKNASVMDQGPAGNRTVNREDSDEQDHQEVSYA
Description: as §1, §2

KIR2DS5 = biological target: T13, KIR2DS5 (UniProt Q14953 22-304, limits assumed); experiment: HEK293 cell microarray
T13 construct: whole, on cells
T13 sequence (Q14953 22-304 limits assumed): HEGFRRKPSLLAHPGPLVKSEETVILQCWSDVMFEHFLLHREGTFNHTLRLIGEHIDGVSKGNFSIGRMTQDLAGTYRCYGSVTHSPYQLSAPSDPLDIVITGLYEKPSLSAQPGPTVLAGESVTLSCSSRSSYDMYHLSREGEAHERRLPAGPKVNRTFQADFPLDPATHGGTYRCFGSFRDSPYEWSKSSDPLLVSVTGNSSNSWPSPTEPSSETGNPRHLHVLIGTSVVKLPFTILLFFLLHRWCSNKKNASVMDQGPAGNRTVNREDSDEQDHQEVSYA
Description: as §1, §2

KIR3DS1 = biological target: T14, KIR3DS1 (UniProt Q14943 22-382, limits assumed); experiment: HEK293 cell microarray
T14 construct: whole, on cells
T14 sequence (Q14943 22-382 limits assumed): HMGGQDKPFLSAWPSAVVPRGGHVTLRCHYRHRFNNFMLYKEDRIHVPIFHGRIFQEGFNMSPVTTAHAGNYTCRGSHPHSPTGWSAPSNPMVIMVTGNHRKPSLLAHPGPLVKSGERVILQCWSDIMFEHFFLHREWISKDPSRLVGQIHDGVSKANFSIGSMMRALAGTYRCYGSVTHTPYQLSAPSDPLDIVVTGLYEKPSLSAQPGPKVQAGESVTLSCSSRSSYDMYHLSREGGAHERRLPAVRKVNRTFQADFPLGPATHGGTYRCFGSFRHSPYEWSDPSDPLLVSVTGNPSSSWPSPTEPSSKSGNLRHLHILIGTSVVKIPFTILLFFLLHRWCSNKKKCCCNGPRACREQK
Description: as §1, §2

Human KIR3DL3 [2] = biological target: T1, Human KIR3DL3; experiment: flow cytometry, KIR3DL3-transfected 300.19 cells
Human KIR3DL3 [3] = biological target: T1, Human KIR3DL3; experiment: flow cytometry; blockade of HHLA2-mIgG2a binding to KIR3DL3-transfected 300.19 cells
Description: (§3) The indicated concentrations of KIR3DL3 mAbs were pre-incubated with KIR3DL3 transfected 300.19 cells for 30 minutes at 4° C. […] EC50 and IC50 analysis were conducted using GraphPad Prism®.

Human KIR3DL3 [4] = biological target: T1, Human KIR3DL3; experiment: flow cytometry, KIR3DL3-transfected 300.19 cells; remark: listed apart in the source
Human KIR3DL3 [5] = biological target: T1, Human KIR3DL3; experiment: flow cytometry; blockade of HHLA2-mIgG2a binding to KIR3DL3-transfected cells
Description: as §3

[6] = biological target: T15, Human KIR3DL3, Sino Biological Cat#: 16055-H08H (human, UniProt Q8N743 26-322); experiment: BLI (Octet RED96), antibody captured on the sensor, antigen in solution, 1:1 model
T15 construct: Bought soluble antigen; also called KIR3DL3 (Octet antigen)
T15 sequence (Q8N743 other isoform, or with tags, fused parts or gaps H08H H08H limits assumed): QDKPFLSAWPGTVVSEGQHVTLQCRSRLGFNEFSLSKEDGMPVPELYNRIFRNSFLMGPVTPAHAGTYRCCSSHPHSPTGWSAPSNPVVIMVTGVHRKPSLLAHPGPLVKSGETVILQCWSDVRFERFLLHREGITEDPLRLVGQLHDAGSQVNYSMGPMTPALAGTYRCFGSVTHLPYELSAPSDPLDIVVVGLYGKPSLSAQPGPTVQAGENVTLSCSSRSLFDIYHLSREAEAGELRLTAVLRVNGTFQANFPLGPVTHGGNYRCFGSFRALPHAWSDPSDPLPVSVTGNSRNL
Description: Binding experiments were performed on Octat Red af 25″° C. The human antibodies were loaded onto Anti-higG Fe Capture biosensors and the mouse antibodies were loaded onto Anti-migG Fe Capture biosensors both for 300 seconds. The ligand loaded sensors were dipped into a 3-fold series dilution (starting at 300 nad) of the antigens (PD-1 and KIR3DL3) for 240 seconds followed by dissociation for 400 seconds. Kinetic constanta were calculated using a monovalent (1:1) binding model Antigen: Haman PD1, Sino Biological Cat #: HPLC-10377-HOSH.

T1 sequence (Q8N743 26-410 H321N limits assumed): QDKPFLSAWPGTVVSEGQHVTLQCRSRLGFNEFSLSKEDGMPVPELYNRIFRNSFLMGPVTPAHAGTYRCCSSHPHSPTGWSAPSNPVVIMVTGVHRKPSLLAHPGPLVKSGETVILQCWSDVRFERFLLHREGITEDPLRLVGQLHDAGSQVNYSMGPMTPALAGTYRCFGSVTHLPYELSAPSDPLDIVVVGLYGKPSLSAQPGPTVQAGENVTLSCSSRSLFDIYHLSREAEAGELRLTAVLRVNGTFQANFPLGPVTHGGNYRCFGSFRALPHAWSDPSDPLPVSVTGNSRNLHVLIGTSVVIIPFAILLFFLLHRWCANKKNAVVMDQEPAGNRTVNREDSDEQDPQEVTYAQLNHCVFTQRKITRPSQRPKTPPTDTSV
T2 sequence (P43629 22-444 limits assumed): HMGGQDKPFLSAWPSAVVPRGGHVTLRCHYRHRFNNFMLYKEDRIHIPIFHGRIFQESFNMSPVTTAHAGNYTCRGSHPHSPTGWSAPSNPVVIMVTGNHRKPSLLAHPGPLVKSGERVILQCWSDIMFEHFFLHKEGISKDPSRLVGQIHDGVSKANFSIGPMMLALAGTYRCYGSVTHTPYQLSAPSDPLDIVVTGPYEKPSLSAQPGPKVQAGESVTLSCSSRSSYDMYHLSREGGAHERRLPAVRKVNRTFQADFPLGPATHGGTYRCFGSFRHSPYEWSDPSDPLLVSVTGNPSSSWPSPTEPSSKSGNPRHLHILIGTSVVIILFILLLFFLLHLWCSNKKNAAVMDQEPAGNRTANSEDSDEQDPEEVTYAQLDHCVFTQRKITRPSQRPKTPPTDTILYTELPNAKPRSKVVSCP

Binder | Jurkat IL-2 Luciferase Activation, EC50 (Human KIR3DL3 [1]) | Jurkat IL-2 Luciferase, Fold Activation (Human KIR3DL3 [1]) | binding result (KIR3DL1) | binding result (KIR3DL2) | binding result (KIR2DL1) | binding result (KIR2DL2) | binding result (KIR2DL3) | binding result (KIR2DL4) | binding result (KIR2DL5B) | binding result (KIR2DS1) | binding result (KIR2DS2) | binding result (KIR2DS3) | binding result (KIR2DS5) | binding result (KIR3DS1) | Kd (Human KIR3DL3 [2]) | IC50 (Human KIR3DL3 [3]) | other results
KIR3DL3 mAb 574.2.1C7.D2.6.5 (antibody, IgG1, V domains shown, Mouse hybridoma antibody, IgG1; only variable domains given; also called AVS-3698) VH: QVQLQQSGAELMKPGASVKISCKATGYTFSNYWIEWIKQRPGHGLEWIGEILPGSGSTNYNEKFKGKATFTAATSSNTAYMQLSSLTSEDSAVYYCARRVPDYYGSRYYFDYWGQGTTLTVSS VL: NIVMTQSPKSMSMSVGERVTLSCKASENVGIYVSWYQQKPEQSPKLLIYGASNRYTGVPDRFTGSGSATDFTLTISSVQAEDLADYHCGQSYNYPFTFGSGTKLEIK | 77 µg/mL | 8.2 fold | no binding (tested: supernatant 1:5, 1:25, 1:250) | no binding (tested: supernatant 1:5, 1:25, 1:250) | no binding (tested: supernatant 1:5, 1:25, 1:250) | no binding (tested: supernatant 1:5, 1:25, 1:250) | no binding (tested: supernatant 1:5, 1:25, 1:250) | no binding (tested: supernatant 1:5, 1:25, 1:250) | no binding (tested: supernatant 1:5, 1:25, 1:250) | no binding (tested: supernatant 1:5, 1:25, 1:250) | no binding (tested: supernatant 1:5, 1:25, 1:250) | no binding (tested: supernatant 1:5, 1:25, 1:250) | no binding (tested: supernatant 1:5, 1:25, 1:250) | no binding (tested: supernatant 1:5, 1:25, 1:250) | 0.77 µg/mL | 0.32 µg/mL | binding result (KIR2DL5A): no binding (tested: supernatant 1:5, 1:25, 1:250)
KIR3DL3 mAb 574.2.2D8.6.9 (antibody, IgG2b, V domains shown, Mouse hybridoma antibody, IgG2b; also called AVS-3702) VH: DVQLVESGGGLVQPGGSRKLSCAASGFTFSYFGMHWVRRAPEKGLEWVAFISSDSTTIYYTDTVKGRFTISRDNPKNTLFLQMTSLRSEDTAIYYCARFYDGAMDYWGQGTSVTVST VL: DIVMTQSQKFMSTSVGDRVSITCKASQSVRTAVAWYQQKPGQSPKVLIYLASNRHTGVPDRFTGSGSGTDFTLTISNVQSEDLADYFCLQHWNYPLTFGAGTKLELK | 1.3 µg/mL | 14.9 fold | no binding (tested: supernatant 1:5, 1:25, 1:250) | no binding (tested: supernatant 1:5, 1:25, 1:250) | no binding (tested: supernatant 1:5, 1:25, 1:250) | no binding (tested: supernatant 1:5, 1:25, 1:250) | no binding (tested: supernatant 1:5, 1:25, 1:250) | no binding (tested: supernatant 1:5, 1:25, 1:250) | no binding (tested: supernatant 1:5, 1:25, 1:250) | no binding (tested: supernatant 1:5, 1:25, 1:250) | no binding (tested: supernatant 1:5, 1:25, 1:250) | no binding (tested: supernatant 1:5, 1:25, 1:250) | no binding (tested: supernatant 1:5, 1:25, 1:250) | no binding (tested: supernatant 1:5, 1:25, 1:250) | 0.46 µg/mL | 0.21 µg/mL | –
KIR3DL3 mAb 574.2.2H1.11.6 (antibody, IgG2b, V domains shown, Mouse hybridoma antibody, IgG2b; only variable domains given; also called AVS-3704) VH: DVQLVESGGGLVQPGGSRKLSCAASGFTFSYFGMHWVRRAPEKGLEWVAFISSDSTTIYYTDTVKGRFTISRDNPKNTLFLQMTSLRSEDTAIYYCARFYDGAMDYWGQGTSVTVST VL: DIVMTQSQKFMSTSVGDRVSITCKASQSVRTAVAWYQQKPGQSPKVLIYLASNRHTGVPDRFTGSGSGTDFTLTISNVQSEDLADYFCLQHWNYPLTFGAGTKLELK | 1.79 µg/mL | 16.2 fold | no binding (tested: supernatant 1:5, 1:25, 1:250) | no binding (tested: supernatant 1:5, 1:25, 1:250) | no binding (tested: supernatant 1:5, 1:25, 1:250) | no binding (tested: supernatant 1:5, 1:25, 1:250) | no binding (tested: supernatant 1:5, 1:25, 1:250) | no binding (tested: supernatant 1:5, 1:25, 1:250) | no binding (tested: supernatant 1:5, 1:25, 1:250) | no binding (tested: supernatant 1:5, 1:25, 1:250) | no binding (tested: supernatant 1:5, 1:25, 1:250) | no binding (tested: supernatant 1:5, 1:25, 1:250) | no binding (tested: supernatant 1:5, 1:25, 1:250) | no binding (tested: supernatant 1:5, 1:25, 1:250) | 0.42 µg/mL | 0.19 µg/mL | –
KIR3DL3 mAb 574.2.2F11.2.7.4 (antibody, IgG2b, V domains shown, Parental mouse hybridoma antibody, IgG2b; only variable domains given; also called AVS-3703) VH: DVQLVESGGGLVQPGGSRKLSCAASGFTFSYFGMHWVRRAPEKGLEWVAFISSDSTTIYYTDTVKGRFTISRDNPKNTLFLQMTSLRSEDTAIYYCARFYDGAMDYWGQGTSVTVST VL: DIVMTQSQKFMSTSVGDRVSITCKASQSVRTAVAWYQQKPGQSPKVLIYLASNRHTGVPDRFTGSGSGTDFTLTISNVQSEDLADYFCLQHWNYPLTFGAGTKLELK | 1.25 µg/mL | 17.1 fold | no binding (tested: supernatant 1:5, 1:25, 1:250) | no binding (tested: supernatant 1:5, 1:25, 1:250) | no binding (tested: supernatant 1:5, 1:25, 1:250) | no binding (tested: supernatant 1:5, 1:25, 1:250) | no binding (tested: supernatant 1:5, 1:25, 1:250) | no binding (tested: supernatant 1:5, 1:25, 1:250) | no binding (tested: supernatant 1:5, 1:25, 1:250) | no binding (tested: supernatant 1:5, 1:25, 1:250) | no binding (tested: supernatant 1:5, 1:25, 1:250) | no binding (tested: supernatant 1:5, 1:25, 1:250) | no binding (tested: supernatant 1:5, 1:25, 1:250) | no binding (tested: supernatant 1:5, 1:25, 1:250) | 0.43 µg/mL | 0.16 µg/mL | EC50 (Human KIR3DL3 [4]): 0.43 µg/mL; IC50 (Human KIR3DL3 [5]): 0.42 µg/mL; Kd [6]: 0.506 nM; koff [6]: 0.000118 s⁻¹; kon [6]: 233000 M⁻¹ s⁻¹
